Measurements from patent US20190270793A1 (Janssen / Centocor, published 2019).
Residue numbers refer to the chain shown, from its start.

Experiments:
[1] = biological target: T1, soluble tau (control tau; recombinant 2N4R tau, SEQ ID NO:31) (human, UniProt P10636 2-758); test: ELISA on coated soluble tau, anti-human Fc:HRP, 5-fold dilutions from 5 ug/ml
T1 construct: also called Sol-tau; recombinant WT tau
Description: Colonies from this electroporation were picked for the ELISA screen and assessment of Fab expression. Briefly, Maxisorp 96 well plates were coated with soluble Tau protein. Fab colonies were grown in 2×YT media and Fab expression was induced with IPTG. ELISA plates were washed and Fab secreted into the E. coli media was added to each ELISA plate. Plates were washed and Anti-Fab′2:HRP (Jackson ImmunoResearch) was added to the ELISA plates. Plates were washed and chemiluminescent detection reagent was added and plates were read on a Perkin Elmer EnVision plate reader for luminescence.
Positive clones were sequenced in both VH and VL. Unique sequences were cloned into IgG gene expression constructs for expression and purification as full length IgG1 molecules. IgG constructs were transfected into CHO-Expi cells and IgG protein was purified using MabSelectSure resin. Antibodies were then tested in an ELISA for binding to soluble Tau, using anti-human Fc:HRP (Jackson ImmunoResearch), to detect IgG binding.
The ELISA was done as described for Fabs except that antibodies were tested at five 5-fold dilutions starting at 5 μg/mL in PGS and anti-human Fc:HRP (Jackson ImmunoResearch) was used to detect IgG binding.

[2] = biological target: T1, soluble tau (control tau; recombinant …); test: direct ELISA on 2N4R tau coated at 10 ng/mL, O.D. 450 nm
Description: (§1) Binding to recombinant WT (2N4R; SEQ ID NO:31) tau was analyzed by ELISA where full-length Tau protein (1 ng/mL or 10 ng/mL) was directly coated to the plate and incubated with different concentrations of either recombinantly- or hybridoma produced PT82 antibody (FIG. 2). After incubation with antibodies, plates were again washed and 50 μL per well of HRPO labelled anti-mouse antibody (GE Healthcare) (diluted 1:10000 in blocking buffer) was added. After another washing step detection was performed with “One step” TMB (Thermo Scientific) according to the manufacturers' instructions. Plates were analysed in EnVision® 2102 Multilabel Reader (Perkin Elmer, Waltham, Mass., USA). Binding curves were generated using GraphPad Prism7.0 software. […] No substantial difference has been observed between binding profiles of recombinant and hybridoma produced antibodies.

[3] = biological target: T2, PHF-tau (paired helical filament-tau), partially purified from postmortem cortex of an Alzheimer patient (human, UniProt P10636-8 2-441, limits assumed, hyperphosphorylated (sites not given)); test: SPR (ProteOn XPR36 or Biacore T200)
T2 construct: This is an aggregated, hyperphosphorylated brain-derived preparation, not a single defined chain
T2 sequence (P10636 other isoform, or with tags, fused parts or gaps limits assumed): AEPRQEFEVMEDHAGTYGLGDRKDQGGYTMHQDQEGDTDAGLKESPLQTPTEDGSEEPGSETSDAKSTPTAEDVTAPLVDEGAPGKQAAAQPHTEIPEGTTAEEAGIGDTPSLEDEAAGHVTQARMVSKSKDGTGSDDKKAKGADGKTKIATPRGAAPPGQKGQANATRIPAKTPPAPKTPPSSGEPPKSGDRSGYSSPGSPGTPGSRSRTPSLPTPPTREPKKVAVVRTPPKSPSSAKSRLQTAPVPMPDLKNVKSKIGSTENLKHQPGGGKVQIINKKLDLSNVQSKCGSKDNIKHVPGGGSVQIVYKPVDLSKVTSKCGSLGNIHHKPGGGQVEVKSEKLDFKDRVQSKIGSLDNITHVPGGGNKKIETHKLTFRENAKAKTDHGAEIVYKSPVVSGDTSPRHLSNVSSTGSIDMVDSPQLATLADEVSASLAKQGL

[4] = biological target: T3, 107 126 …; test: pepscan-based ELISA on the array of linear 20-mer Tau441 peptides
T3 construct: Linear 20-mer made on the solid support of the pepscan array; also called Tau441 peptide 107-126
T3 peptide: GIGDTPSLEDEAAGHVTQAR
Description: (§2) The binding of antibodies (recombinantly expressed as IgG2a) to each of the synthesized peptides was tested in a pepscan-based ELISA. The peptide arrays were incubated with primary antibody solution (overnight at 4° C.). After washing, the peptide arrays were incubated with a 1/1000 dilution of an appropriate antibody peroxidase conjugate (SBA) for one hour at 25° C. After washing, the peroxidase substrate 2,2′-azino-di-3-ethylbenzthiazoline sulfonate (ABTS) and 20 μl/ml of 3 percent H2O2 were added. After one hour, the color development was measured. The color development was quantified with a charge coupled device (CCD)—camera and an image processing system.

[5] = biological target: T4, 113 132 …; test: as above
T4 construct: Linear 20-mer made on the solid support of the pepscan array; also called Tau441 peptide 113-132
T4 peptide: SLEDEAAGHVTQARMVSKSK
Description: as §2

[6] = biological target: T5, 103 122 …; test: as above
T5 construct: Linear 20-mer made on the solid support of the pepscan array
T5 peptide: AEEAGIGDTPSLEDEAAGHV
Description: as §2

[7] = biological target: T6, 119 138 …; test: as above
T6 construct: Linear 20-mer made on the solid support of the pepscan array
T6 peptide: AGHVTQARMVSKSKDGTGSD
Description: as §2

[8] = biological target: T7, 121 140 …; test: as above
T7 construct: Linear 20-mer made on the solid support of the pepscan array; also called Tau441 peptide 121-140
T7 peptide: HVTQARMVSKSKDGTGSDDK
Description: as §2

[9] = biological target: T8, 105 124 …; test: as above
T8 construct: Linear 20-mer made on the solid support of the pepscan array; also called Tau441 peptide 105-124
T8 peptide: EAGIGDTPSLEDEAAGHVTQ
Description: as §2

[10] = biological target: T9, 111 130 …; test: as above
T9 construct: Linear 20-mer made on the solid support of the pepscan array; also called Tau441 peptide 111-130
T9 peptide: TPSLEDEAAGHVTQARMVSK
Description: as §2

[11] = biological target: T10, 115 134 …; test: as above
T10 construct: Linear 20-mer made on the solid support of the pepscan array; also called Tau441 peptide 115-134
T10 peptide: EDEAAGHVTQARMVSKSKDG
Description: as §2

[12] = biological target: T11, 109 128 …; test: as above
T11 construct: Linear 20-mer made on the solid support of the pepscan array; also called Tau441 peptide 109-128
T11 peptide: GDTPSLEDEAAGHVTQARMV
Description: as §2

[13] = biological target: T12, 117 136 …; test: as above
T12 construct: Linear 20-mer made on the solid support of the pepscan array; also called Tau441 peptide 117-136
T12 peptide: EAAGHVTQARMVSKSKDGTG
Description: as §2

[14] = biological target: T1, soluble tau (control tau; recombinant …); test: direct ELISA on 2N4R tau coated at 1 ng/mL, O.D. 450 nm
Description: as §1

[15] = biological target: T1, soluble tau (control tau; recombinant …); test: SPR (ProteOn XPR36 or Biacore T200); central value of the cell

T1 sequence (P10636 other isoform, or with tags, fused parts or gaps limits assumed): as the sequence (P10636 other isoform, or with tags, fused parts or gaps limits assumed) above

B1: PT1B779 (humanized PT82, full length IgG1) (antibody, V domains shown)
VH: EVQLVESGGGLVQPGGSLRLSCAASGFTFSNYWMNWIRQAPGKGLEWVGQIRLQDDNYATRYAASVKGRFTISRDDSKNSVYLQMNSLKTEDTAVYYCTGGTTYWGQGTLVTVSS
VL: DIQMTQSPSFLSASVGDRVTITCKASQNVGTKVAWYQQKPGKAPKLLIYSASIRYTGVPSRFSGSGSGTEFTLTISSMQPEDFATYYCQQFSSYPYTFGQGTKLEIK
binding result [1]: binds

B2: PT1B778 (humanized PT82, full length IgG1) (antibody, V domains shown)
VH: B1 VH with D55S, A59V
VL: B1 VL with K32R
binding result [1]: binds

B3: PT1B782 (humanized PT82, full length IgG1) (antibody, V domains shown)
VH: B1 VH with D55Y
VL: B1 VL with M4L
binding result [1]: binds

B4: PT1B781 (humanized PT82, full length IgG1) (antibody, V domains shown)
VH: B1 VH with D55R
VL: B1 VL
binding result [1]: binds

B5: PT1B780 (humanized PT82, full length IgG1) (antibody, V domains shown)
VH: B1 VH with D55S, V81L
VL: B1 VL with M78L
binding result [1]: binds

B6: PT82 mAb, recombinantly expressed (mouse IgG2a/kappa) (antibody, V domains shown)
VH: EVKLEESGGGLVQPGGSMKLSCVASGFTFSNYWMNWIRQSPEKGLEWVAQIRLQSDNYATRYAESVKGRFTISRDESKTSVYLQMNNLRTEDTGIYYCTGGTTYWGQGTLVTVSA
VL: DIVMTQSQKFMSTSVGDRVSITCKASQNVGTAVAWYQQKPGQSPKLLIYSASIRYTGVPDRFTGSGSGTDFTLTINYMQSEDLADYFCQQFSSYPYTFGGGTKLEIK
notes: also called recombinant PT82; murine PT82
EC50 (read off the curve) [2]: ~0.01 µg/mL | Kd [3]: 2.85 nM | pepscan ELISA signal (PT82) [4]: 2920 | pepscan ELISA signal (PT82) [5]: 2930 | pepscan ELISA signal (PT82) [6]: 68 | pepscan ELISA signal (PT82) [7]: 2910 | pepscan ELISA signal (PT82) [8]: 68 | pepscan ELISA signal (PT82) [9]: 2900 | pepscan ELISA signal (PT82) [10]: 2930 | pepscan ELISA signal (PT82) [11]: 2920 | pepscan ELISA signal (PT82) [12]: 2920 | pepscan ELISA signal (PT82) [13]: 2920 | EC50 (read off the curve) [14]: ~0.05 µg/mL

B7: PT82 Fab (chimeric: mouse variable domains on human IgG1/kappa constant domains, His tag at the C-terminus of the heavy chain) (Fab, V domains shown)
VH: B6 VH
VL: B6 VL
notes: The Fab has mouse variable domains fused to human IgG1/kappa constant domains, with a His tag at the C-terminus of the heavy chain; also called Fab fragment of PT82
Kd [15]: 1.84 nM | Kd [3]: 5.01 nM

B8: PT82 from hybridoma supernatant (hybridoma-produced mouse monoclonal antibody) (antibody, V domains shown)
VH: B6 VH
VL: B6 VL
notes: This is the native hybridoma antibody; also called hybridoma produced PT82
EC50 (read off the curve) [2]: ~0.004 µg/mL | EC50 (read off the curve) [14]: ~0.02 µg/mL
